Assay results from the supplement of paper PMC9942255.
Several values for one entry are separate records, joined by “and”; a condition that tells them apart may be missing. Identical values can stand only once.

Tested on: Bacillus subtilis DB104 (SP-AmyQ fusion secretion)
Assay: AmyQ secretion efficiency, weighted average sort bin (1 = best secretion, 10 = worst) (bin number (weighted average, 1-10)); higher = lower secretion efficiency
How it was run: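 The secretion score was taken as the read-frequency-weighted mean bin number, normalised to beads per bin, with low-abundance sequences excluded. Bins came from large-particle flow cytometry sorting of occupied alginate beads (~65 nL, about 0.3 cells each, with fluorescein-starch) into 10 equally populated groups by green/red fluorescence ratio after about 13 h at room temperature and nile red staining. The cells were a B. subtilis DB104 library with mature AmyQ fused to designed signal peptides, integrated at amyE, and each bin's amplicons were Illumina-sequenced.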

Going from MLRITINIITMFIAAAVISLTGTAEAAEK to MLKKIMNLNMMMALTLCPAIVGSLLFFTAPASAHVS, the AmyQ secretion efficiency falls from 3.59 to 2.77.

Going from MKVLLSALLLLLFAFEPSASWKKL to MSSTITFVLTMCFLGLILFVPTALADNS, the AmyQ secretion efficiency falls from 5.1 to 2.16.

First: MKKWLIIAVSLAIAIVLFMAFKGEAKAAGM
Second: MRKKRGYRCGMAASLTLGSLLPAGYASAKED
The AmyQ secretion efficiency of the first is lower: 3.57 for the first, 6.63 for the second.

First: MKRLFMKASLVLFAVVFVFAVKGAPLKAETH
Second: MKRRKVLTGSVLSLGLLVSASPAFATSP
The AmyQ secretion efficiency of the first is higher: 2.67 for the first, 2.61 for the second.

First: MRKNRSSMSFTLILALFVLSLGLLSFMVTPVSAASK
Second: MKKRRKKLLAAGIIGLLTVSIASPSFAAEK
The AmyQ secretion efficiency of the first is lower: 1.45 for the first, 3.36 for the second.

First: MFNRLFRVCFLAALIMAFTLPNSVYQQKP
Second: MKVLLSALLLLLFALVALSFEPSASGKKL
The AmyQ secretion efficiency of the first is higher: 5.8 for the first, 3.74 for the second.

Going from MKIRKILLSSALSFGMLISAVPALNAGT to MKLSVKIAGVLTVAAAAMTAKMYATMKGN, the AmyQ secretion efficiency rises from 6.27 to 6.84.

Going from MFTNHTISLLIIFLLASAVLAKPIEAHTV to MNLRKILLSSALSLGMLVSAAPCLATSS, the AmyQ secretion efficiency falls from 2.28 to 2.03.

First: MKLAKRVRKLTPSTTLAITAKAKEL
Second: MTKRGIQAFAGGIILATYLTDEDQAAAV
The AmyQ secretion efficiency of the first is higher: 8.89 for the first, 7.21 for the second.

Going from MKKKQVMGYTTAAAGLGLTALHSAPAAKAAPL to MKKAAAVLLSLGLVFGFSYGAGHVAETKTK, the AmyQ secretion efficiency falls from 7.28 to 5.95.

Going from MKRIRIPMTLALGAALTIAPLSFSSAEEN to MKRLLVSLRVWMVFLMNWVTPDRKTAAAAVD, the AmyQ secretion efficiency rises from 4.73 to 7.62.

Compared with MKKRKRRNFKRFIAAFLVLALMISLVPADTLAKST, MRSYIKVLTMCFLGLILFVKRRKRRALADNS is higher in AmyQ secretion efficiency: 1.68 for the first, 7.48 for the second.

Compared with MKRIRIPMTLALGAALTIAPLSFTSAEEN, MKSKGSIMACLILFSFTITTFINTETKSAFSN is higher in AmyQ secretion efficiency: 3.52 for the first, 6.7 for the second.

First: MPYLKRVLLLLVTGLFMSLAVTATASAQTG
Second: MKKRLIGFLVLVPALIMSGITLREANKK
The AmyQ secretion efficiency of the first is lower: 1.16 for the first, 7.02 for the second.

Going from MKRTWNVCLTALLSVLLVAGSVPFHAEAAKK to MNKLKRLSMLTVMIASVFIFSSHTLAAQY, the AmyQ secretion efficiency falls from 2.52 to 1.95.

Compared with MKKCLLFLTTIALILSLSTNGFAKNT, MKRSISKRKRCKKITLLTMGGMIASPASAAGT is lower in AmyQ secretion efficiency: 6.12 for the first, 6.02 for the second.

Going from MKRRRRKIWTIILGALLVCCIAVAYTLTKSQAGASSS to MLKRTSFVSSLKKSSAVLLSILLPSGQAHAQSA, the AmyQ secretion efficiency falls from 5.49 to 3.11.

Going from MRKSLITLGLASIVIGTSSFLIPFTSKTASAETL to MKKLLAAGIIGLLTVSIASPSFAASC, the AmyQ secretion efficiency falls from 2.2 to 1.59.

Compared with MTMLRKIRRKRKRLCIIPLFAFTVIASGKEV, MKKKQVMLALTAAAGLGLTALHSAPAFKAAPL is lower in AmyQ secretion efficiency: 6.99 for the first, 6.7 for the second.

Compared with MLCVMMLLFSAIASFPVSLQAKDQ, MKRTWNVCLTALLSVLLVAGSVTFHAEAKKP is lower in AmyQ secretion efficiency: 5.46 for the first, 2.82 for the second.

First: MRHKIITFILAVVVIIIIGNMIGGGGGSEATSH
Second: MRKKRNVITCVMAASLTLGSLLPAGYASAKED
The AmyQ secretion efficiency of the first is higher: 5.06 for the first, 3.03 for the second.

Going from MKLSVKIAGVLTVAAAAMTAKMYATAKKK to MKKWLIIAVSLAIAIVLFDDTDGEAKAAGM, the AmyQ secretion efficiency falls from 5.42 to 2.55.

Compared with MRPVFPLILSAVLFLSCFFGARQTEASTSKR, MKKAAAVLLSLGLVFGFSYGAGHVAEADDD is higher in AmyQ secretion efficiency: 2.25 for the first, 5.61 for the second.

Going from MKVPKTMLLSTAAGLLTATSVSAHYV to MKWMCSICCAAVLLAGGAAQADDE, the AmyQ secretion efficiency falls from 6.58 to 6.18.

Compared with MKQTRSKQSSFMLLAMTGQTALAKDV, MKSKWMSGLLLVAVGFSFTQVMGHAGET is lower in AmyQ secretion efficiency: 7.56 for the first, 5.88 for the second.

First: MKRMIVRMKRPSLIVCLAFSSFSASARAASE
Second: MGRFSTAYLLLGILCSAAVFLIGAPSRALGAEV
The AmyQ secretion efficiency of the first is higher: 6.12 for the first, 2.59 for the second.

Compared with MKKVLMAFIICLSLILSVLAAPPSGAKAARR, MRNLTKTSLLLAGLCTAAIMVFVIHASAEES is higher in AmyQ secretion efficiency: 2.06 for the first, 5.76 for the second.

First: MKKIVSILFMFGLVMGFSQFQPSTMFAADK
Second: MARKRKIIAAVIVIAALITFNVRNASPG
The AmyQ secretion efficiency of the first is lower: 2.83 for the first, 6.43 for the second.

First: MRPVFPLILSAVLFLSCFFGARQTEASARKR
Second: MPYLKRVLLLLVTGLFMSLFAVTATASWQTG
The AmyQ secretion efficiency of the first is lower: 2.01 for the first, 2.84 for the second.

Going from MAIIIAIIAAVIVIAALITFNVRNRSPG to MFKFKKNFLVGLSAALMSIKQFSATASAAST, the AmyQ secretion efficiency falls from 7.6 to 5.73.

First: MKLAKRVSALTPSTTLAITAKAAPD
Second: MGLGKKLKKRKRRSFMSLSISLPGVQAAEG
The AmyQ secretion efficiency of the first is higher: 7.89 for the first, 7.65 for the second.

In the case of MRNLTKTSLLLAGLCTAAIQMVFVTHASAEES, the AmyQ secretion efficiency is reported as 3.32 and 3.1.
